Experimental data: the supplement of paper PMC10567573
± gives the standard deviation.

Experiment: protein stability index of a GFP-peptide fusion (GPS, HEK-293T) (PSI 1-6); higher = more stable
[1] = treatment: DMSO, c terminus: a fixed tail appended
[2] = treatment: MLN4924 1 uM, 8 h, c terminus: a fixed tail appended
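Also: 24-mer peptide tiles fused after GFP, lentivirally expressed, FACS-sorted into six equal bins by GFP/DsRed ratio, decoded by Illumina sequencing, PSI is the read-weighted mean bin number.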

Sequence | protein stability index [1] | protein stability index [2] | protein stability index (treatment: DMSO, c terminus: native) | protein stability index (treatment: MLN4924 1 uM, 8 h, c terminus: native)
EVYYAKKKRRAQQAPPQDSSNKKE [DYRK1B] | 4.45 ± 0.28 | 4.77 ± 0.24 |  | 
EYIVKKLSRQEFLGMVGLFGTIIS [SLC35F2] | 2.43 ± 0.26 | 2.44 ± 0.27 |  | 
EYQLYEDIGKGAFSVVRRCVKLCT [CAMK2B] | 2.45 ± 0.26 | 2.25 ± 0.36 |  | 
FACPSQALFFKNIMNIIDIVSILP [KCNA4] | 3.02 ± 0.073 | 2.85 ± 0.27 |  | 
FDIQKIMQEKNPVHVIGVEEPSVG [ZNF8] | 4.07 ± 0.39 | 4 ± 0.4 |  | 
FDIRILMAKSVKYTVNFLEAKEGD [CARM1] | 2.27 ± 0.28 | 2.33 ± 0.33 |  | 
FDPLRNEYFFDRNRPSFDAILYYY [KCNA1] | 2.68 ± 0.45 | 2.73 ± 0.48 |  | 
FEGDMGAAGGDGELGSPLRRSISS [PSD2] | 4.81 ± 0.2 | 4.94 ± 0.13 |  | 
FENPADAKNAAKDMNGKSLHGKAI [RBMY1A1] | 4.92 ± 0.14 | 5 ± 0.23 |  | 
FFGVFQSFVVLLYILDNETNFVVQ [CLPTM1] | 3.19 ± 0.33 | 2.86 ± 0.42 |  | 
FFLRGRLDQLLRHVMNPLETLSIT [PRAME] |  | 2.1 ± 0.52 |  | 
FFSKRFKSAAMLAVFAVSAVVHEY [SOAT1] | 2.35 ± 0.9 | 3.06 ± 0.41 |  | 
FHYIIEQGVCYLVLCEAAFPKKLA [SEC22B] | 3.01 ± 0.71 | 2.68 ± 0.63 |  | 
FIAGLCVFIISTLAIDFIDEGRLL [SOAT2] | 2.81 ± 0.6 | 3.01 ± 0.33 |  | 
FIRCSLQCRDLVDEAKKFHLRPEL [KLHL12] | 2.67 ± 0.8 | 2.82 ± 1.4 |  | 
FKLDKKYQRPQDSEDMWGDEDFTF [FBF1] | 4.12 ± 0.18 | 4.14 ± 0.23 |  | 
FKMLDPDGKGKINKEYIKRLLMSQ [MYL5] | 2.41 ± 0.28 | 2.63 ± 0.3 |  | 
FLDNGYGHCLLDKPEAPLHLPVTF [ADAMTS4] | 2.07 ± 0.37 | 2.16 ± 0.14 |  | 
FLQRCLESPFSRKLDLWSFLDIPR [NET1] | 2.45 ± 0.47 | 2.1 ± 0.18 |  | 
FLTLEKFTIHNYSHSRERPYKCVQ [PLAGL1] | 2.68 ± 0.26 | 2.13 ± 0.24 |  | 
FLVFVIVLFFIYHFMQAEEGNPF [EMD] |  |  | 2.94 ± 0.44 | 2.83 ± 0.17
FMPQGAGGHTREARIQTLEPDNWM [RSAD1] | 3.27 ± 0.33 | 3.11 ± 0.29 |  | 
FNFVSTPKCSCGQLAAVHLSKSRT [RNF180] | 2.14 ± 0.43 | 2.05 ± 0.26 |  | 

Sequence | protein stability index [1] | protein stability index [2] | protein stability index (treatment: DMSO, c terminus: native) | protein stability index (treatment: MLN4924 1 uM, 8 h, c terminus: native)
FNLFCQKRFDESMQVFAKLGTDPT [VPS39] | 2.68 ± 0.36 | 2.68 ± 0.11 |  | 
FPDVPLGIFLFCVCVIAIGVVQAL [TMEM175] | 2.63 ± 0.62 | 2.28 ± 1.2 |  | 
FPRMLLVDRLPGLQGALDLLAVLC [ZSWIM9] | 2.29 ± 0.18 | 2.25 ± 0.084 |  | 
FQELAGKELCAMSEEQFRQRSPLG [SPDEF] | 3.1 ± 0.42 | 3.59 ± 0.33 |  | 
FQRAMHDYNQAEMKQRDNCKIRIQ [STX11] | 3.08 ± 0.33 | 3.44 ± 0.37 |  | 
FRCSVCSRQLLPGDEFSLREHELL [ISL2] | 2.39 ± 0.4 | 2.24 ± 0.59 |  | 
FRHDRLRFRDFVDALEDSLEEVAV [PBXIP1] | 3.04 ± 0.47 | 3.48 ± 0.3 |  | 
FRIILGDFDYNAIDNANRILGPAY [PKD2L1] | 2.74 ± 0.55 | 2.62 ± 0.55 |  | 
FSGQIRLNEDTIQDVVQAADLLLL [GAN] | 2.27 ± 0.24 | 2.3 ± 0.43 |  | 
FSLFGDISVLQQQGSLSNTYLSKV [FBXO33] | 2.12 ± 0.38 | 2.13 ± 0.096 |  | 
FSPDFTLRNTLKSTSEDSLVKQEC [FAN1] | 2.67 ± 0.58 | 3.43 ± 0.85 |  | 
FSQLEDKFPGQSSFLWQRGRKFLQ [TOR1AIP2] | 2.69 ± 0.22 | 2.75 ± 0.34 |  | 
FTIHNYSHSRERPYKCVQPDCGKA [PLAGL1] | 2.86 ± 0.45 | 2.89 ± 0.37 |  | 
FVQILLALHHVHTHLILHRDLKTQ [NEK8] | 2.98 ± 0.064 | 3.01 ± 0.2 |  | 
FVSRYKLMRHMATHSPQKSHQCAH [PLAGL1] | 2.7 ± 0.37 | 2.55 ± 0.38 |  | 
FWDLFRSKDNMRTRIMIGLTLVFF [SLC2A12] | 2.53 ± 0.55 | 2.67 ± 0.39 |  | 
FYFKLTDLYKKVKKNSSPPLSLYG [CRY1] | 2.7 ± 0.51 | 2.69 ± 0.49 |  | 
GAGLPQFQSISLRKIQFNFPYFRS [CLCN6] | 2.13 ± 0.26 | 2.21 ± 0.41 |  | 
GAIAQSSIYPMEVLKTRMALRKTG [SLC25A25] | 3.54 ± 0.11 | 3.74 ± 0.28 |  | 
GALYGITLIPTCKFYTWLWGVFYY [SCD] | 2.39 ± 0.41 |  |  | 
GAYGNLKRLYDKAAKMYHQLKKCE [SMG5] | 2.45 ± 1 | 2.325 ± 0.014 |  | 
GDKLKFLSMLLTLKCEMNQMSGEP [ACSBG2] | 2.38 ± 1.1 | 2.56 ± 1 |  | 
GEEALSLQALDPQQCVDKESSLGS [SLC22A15] | 5.36 ± 0.33 | 5.36 ± 0.32 |  | 

Sequence | protein stability index [1] | protein stability index [2] | protein stability index (treatment: DMSO, c terminus: native) | protein stability index (treatment: MLN4924 1 uM, 8 h, c terminus: native)
GEENFEVVKQFVTGIIDSLTISPK [MATN2] | 3.18 ± 0.2 | 3.32 ± 0.46 |  | 
GEPLALPLDAGEYCVPRGNRRRFR [BEX1] | 4.8 ± 0.27 | 4.99 ± 0.25 |  | 
GFVFGTTLIMLLSLAAFSVISVVS [RTN3] | 3.2 ± 0.33 | 2.61 ± 0.58 |  | 
GFVMVPFEYRGEQHKTCMLNATSK [EDNRA] | 2.24 ± 0.43 | 2.75 ± 0.37 |  | 
GGAGKGRTPSAFPQTPAAPPATLG [EHMT1] | 4.6 ± 0.13 | 4.79 ± 0.059 |  | 
GGFGQVYKVRHVHWKTWLAIKCSP [RIPK4] | 2.35 ± 0.85 | 2.05 ± 0.32 |  | 
GGRAYQALHCPTGTEYTCKVYPVQ [TRIB3] | 2.73 ± 0.3 | 2.76 ± 0.33 |  | 
GHAQDLMDGLPPGDSNQLAWFDTD [CTNNB1] | 4.93 ± 0.31 | 4.7 ± 0.27 |  | 
GHGNKVLCMDWCKDKRRIVSSSQD [GNB5] | 3.64 ± 0.28 | 3.85 ± 0.45 |  | 
GHGTRKRVPLGRLELLEEVLALGL [RSAD1] | 2.15 ± 0.21 | 2.3 ± 0.51 |  | 
GIPWEAGARQISYSIPEELEKGSF [PCDHGA10] | 4.24 ± 0.059 | 3.87 ± 0.34 |  | 
GIRQITSDDFCTFQMVLEGGVCCT [GFOD1] | 2.18 ± 0.21 | 2.22 ± 0.4 |  | 
GKEDSTLQLLREENRALQQLLEQK [CBY2] | 4.81 ± 0.23 | 4.84 ± 0.38 |  | 
GKLLLRLPSLRTVSSSVIEQLFFV [NR2F2] | 2.81 ± 0.6 | 2.83 ± 0.34 |  | 
GLAFFTFPNIASATKFKQLYRSRM [HMOX1] | 2.39 ± 0.78 | 1.98 ± 0.34 |  | 
GLAGYLSGYDGTFLFQKPGDKYEH [POMT2] | 2.62 ± 0.7 | 2.91 ± 0.6 |  | 
GLDSPPLYPSAPILGGSGPVRKLY [ESRRG] | 3.37 ± 0.13 | 3.49 ± 0.24 |  | 
GLGLEDADWTQGLPWRFEELLTCS [TEX19] | 2.42 ± 0.47 | 2.76 ± 0.62 |  | 
GPQSRELTLKVLRSSSCGDTELLG [C2CD2L] | 3.47 ± 0.28 | 3.59 ± 0.2 |  | 
GPRPPAGELGSIGDHERAIDFSPY [CEBPB] | 4.15 ± 0.25 | 4.28 ± 0.21 |  | 
GPTSSNPRKRHREDSDVEMVEDDS [MLH1] | 5.32 ± 0.13 | 5.22 ± 0.6 |  | 
GQRDRKAEHWKHKKEESGRERKKN [PBXIP1] | 5.08 ± 0.12 | 5.4 ± 0.15 |  | 
GQVAEDRFPESHLPIQTPGAFLRT [TLE6] | 3.53 ± 0.48 | 3.99 ± 0.38 |  | 

Sequence | protein stability index [1] | protein stability index [2] | protein stability index (treatment: DMSO, c terminus: native) | protein stability index (treatment: MLN4924 1 uM, 8 h, c terminus: native)
GRCIHAGCDRIIGSKKKFDKCMVC [ADAMTS4] | 3.66 ± 0.41 | 3.56 ± 0.15 |  | 
GRCTVRDFIHRHCQDQNVPVENFF [SDE2] | 2.51 ± 0.4 | 2.72 ± 0.049 |  | 
GRDRNLAPDEKRSNVRWDHESVCK [LUC7L3] | 4.61 ± 0.41 | 4.55 ± 0.2 |  | 
GSCEDEPMDSTMDDAVAGDFALIN [ATE1] | 5.25 ± 0.25 | 5.44 ± 0.16 |  | 
GSELKDSIPVTELSASGPFESHDL [POMP] | 5.28 ± 0.34 | 5.18 ± 0.57 |  | 
GSGQNEESPRKRKKATEAIDSLRK [FBXO28] | 5.11 ± 0.2 | 5.17 ± 0.2 |  | 
GSLCSPWAAPRVGPLPPAPAMVRI [YPEL3] | 2.95 ± 0.15 | 3.07 ± 0.45 |  | 
GSLGFEPVYVSCIAQDTCTTTDHS [SPAG8] | 3.37 ± 0.35 | 3.64 ± 0.17 |  | 
GSSPKSKTKWTKEDGHRTSTSAVP [ADD1] | 4.96 ± 0.17 | 4.81 ± 0.25 |  | 
GSTNLTGLFFPPQLNGTANDTAGP [NFE2L1] | 3.93 ± 0.14 | 4 ± 0.25 |  | 
GSYSSTMNGHQNGLDSPPLYPSAP [ESRRG] | 4.07 ± 0.23 | 4.3 ± 0.14 |  | 
GTARYMSINTHLGKEQSRRDDLEA [CSNK1G3] | 4.75 ± 0.42 | 4.63 ± 0.16 |  | 
GTLCIGAAAFSQCEEWSFFHAYYY [KCNK9] | 2.58 ± 0.53 | 2.9 ± 0.66 |  | 
GTTMASGGRFRCPSCRHEVVLDRH [TRIM55] | 2.08 ± 0.41 | 2.12 ± 0.22 |  | 
GTVFQELNKLYPTHACREYLKNLP [TPH1] | 2.46 ± 0.34 | 2.38 ± 0.26 |  | 
GVSANASKAWHQKSHFQNSREWSG [PBXIP1] | 3.22 ± 0.33 | 3.23 ± 0.3 |  | 
GYNDYTINVWDVLKGSRVSILFGH [GNB5] | 2.28 ± 0.39 | 2.3 ± 0.37 |  | 
GYRTSAVASGLQFDVETRHVFIGD [WDFY2] | 2.86 ± 0.31 | 3.15 ± 0.36 |  | 
GYVPSNYVERKNSLKKGSLVKNLK [NCK2] | 3.96 ± 0.16 | 3.89 ± 0.19 |  | 
HAAAVNGDKGALQRLIVGNSALKD [INVS] | 4.29 ± 0.25 | 4.29 ± 0.32 |  | 
